{"source": "patent US20050232920A1", "key": {"[1]": {"biological_target": "factor D purified from human serum (human) (UniProt P00746)", "sequence (P00746 26-253 N180D)": "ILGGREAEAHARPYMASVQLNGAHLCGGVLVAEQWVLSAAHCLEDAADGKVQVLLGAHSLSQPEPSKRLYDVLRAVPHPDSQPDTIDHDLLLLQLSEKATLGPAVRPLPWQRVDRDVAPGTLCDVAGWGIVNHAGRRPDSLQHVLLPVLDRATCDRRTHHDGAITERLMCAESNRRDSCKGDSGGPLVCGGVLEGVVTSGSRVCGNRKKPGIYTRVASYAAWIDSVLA", "assay": "SPR (BIAcore), factor D amine-coupled to the chip, MAb 166-32 as analyte"}, "[2]": {"biological_target": "factor D purified from human serum (human) (UniProt P00746)", "assay": "SPR (BIAcore), MAb captured by rabbit anti-mouse IgG, factor D as analyte"}, "[3]": {"biological_target": "factor D purified from human serum (human) (UniProt P00746)", "assay": "cell-based or functional assay"}, "[4]": {"biological_target": "dog factor D (in dog serum) (dog)", "assay": "cell-based or functional assay", "settings": "scale: times less effective than on human factor D"}}, "data": [{"substance": "MAb 166-32 (antibody)", "values": [{"measurement": "Kd", "setting": "[1]", "value": 0.16, "unit": "nM"}, {"measurement": "koff", "setting": "[1]", "value": "7.6e-05", "unit": "s⁻¹"}, {"measurement": "kon", "setting": "[1]", "value": 460000, "unit": "M⁻¹ s⁻¹"}, {"measurement": "Kd", "setting": "[2]", "value": "< 0.1", "unit": "nM"}, {"measurement": "koff", "setting": "[2]", "value": 0.00011, "unit": "s⁻¹"}, {"measurement": "kon", "setting": "[2]", "value": "> 1e+06", "unit": "M⁻¹ s⁻¹"}, {"measurement": "alternative complement activity of plasma from extracorporeal circuits (hemolysis of rabbit red blood cells) (molar ratio (MAb: factor D))", "setting": "[3]", "value": 1.5}, {"measurement": "factor D dependent hemolysis of unsensitized rabbit RBCs (factor D depleted human serum with purified factor D added)", "setting": "[3]", "value": 0.3, "unit": "µg/mL"}, {"measurement": "factor D dependent hemolysis of unsensitized rabbit RBCs: molar ratio for inhibition (molar ratio (MAb 166-32 to factor D))", "setting": "[3]", "value": 0.5}, {"measurement": "neutralization of factor D in hemolytic assays", "setting": "[4]", "value": "> 10"}]}]}
